This note sets out measurements from doi:10.1101/2024.04.24.590897 (bioRxiv, 2024).

In this assay the target is Flag-LEDGF/p75 (UniProt O75475 1-530). The assay can be described thus: AlphaScreen or HTRF. On the technique in general: Alpha assays give light when donor and acceptor beads are brought close together.

B1: GST-LEDGF/p52 (natural protein)
chain: not shown
With B1, the binding result was “binds”.
